For two substances, stoichiometry N and Kd results are on record in paper PMC8211105.

The stoichiometry N is the number of molecules, sites or subunits per partner or assembly. Broadly, the Kd is the concentration at which binding is half-saturated. Read a low Kd as higher affinity.

Assay [1] deals with Spa33^C, purified recombinant (S. flexneri). As to the kind of experiment: SEC; Spa33^C alone expressed in E. coli and purified by IMAC and Superdex 200 (20 mM Tris, 200 mM NaCl, pH 7.5); apparent homodimer.
Assay [2] has as its target MxiN with an N-terminal His6-tag, purified (S. flexneri) (UniProt Q6XVX6). The assay is described as follows: BLI; His6-MxiN immobilised on Ni-NTA biosensor tips; untagged Spa33 at 400, 200, 100, 50, 25 and 12.5 µg/mL; PBS with 10% glycerol, 0.01% BSA, 0.002% Tween 20; 25°C; Octet RED96; 1:1 Langmuir model; KD from the equilibrium response (Req). A general note: In BLI a coated tip is dipped into the sample, and binding shifts an interference pattern.

Regarding “Spa33^C, purified recombinant (domain or fragment)”, the stoichiometry N in assay [1] worked out at 2.
The substance “Wild-type Spa33 heterotrimer (one Spa33^FL with two Spa33^C), purified, untagged (from UniProt P0A1K9 1-293) (complex)” returned a Kd in assay [2] of 550 nM.
